Paper PMC5165034 (2016)
Substitutions are numbered along the chain they refer to.

B1: 7F2 HCAb (antibody, V domains shown)
VH: EVQLVESGGGLVKPGGSLRLSCAASGFTFSADYMSWIRQAPGKGLEWVSYISSSGSSIYYADSVKGRFTISRDNAKNSLYLQMNSLRAEDTAVYYCARGWFGESHSFDYWGQGTLVTVSS
B2: 2F4 HCAb (antibody, V domains shown)
VH: EVQLVESGGGLVKPGGSLRLSCAASGFAFSDYYMSWLRQAPGKGLEWVSYISSSGSNIYYADSVKGRFTISRDNAKNSLYLQMNSLRAEDTAVYYCARGAGVFDYLGQGGRGTLVTVSS
B3: 1G11 HCAb (antibody, V domains shown)
VH: EVQLVESGGGLVKPGGSLRLSCAASGFTFSDYYMSWIRQTPGKGLEWVSYISSSGSNIYYADSVKGRFTISRDNAKNSLYLQMNSLRAEDTAVYYCARGISMARDSWGQGTLVTVSS
B4: 1F4 HCAb (antibody, V domains shown)
VH: B3 VH with T40A, N57T, I100V, S101K, M102L, A103T, R104E, S106D
B5: 1C12 HCAb (antibody, V domains shown)
VH: B3 VH with T40A, N57T, I100V, S101A, A103V, T114N
B6: 3A8 HCAb (antibody, V domains shown)
VH: B3 VH with T40A, S56D, N57I, Y80F, A97T, I100V, M102L, A103V, S106Y, L112Q

Each binder was assayed against bromelain-released HA (BHA) of influenza X-31 (influenza A strain X-31 (H3N2)) (assay: BLI).

Binder	Kd
B1	35 nM
B2	5.6 nM
B3	2.9 nM
B4	6.6 nM
B5	1.8 nM
B6	3.2 nM
